Assay results reported in patent publication EP4703384A1.
Where a chain is given by its changes, count along the chain named. Values belong to the binder of their own block, whether it stands above or below them.

Columns and labels:
[1] = molecular target: CHO-K1-hGPRC5D^hi cells, CHO-K1-cynoGPRC5D cells, and/or CHO-K1-murineGPRC5D cells; assay: cell ELISA (OD450), subclone supernatant on fixed transfected CHO-K1 cells against CHO-K1
[2] = molecular target: human GPRC5D protein (human) (UniProt Q9NZD1); assay: FACS, hybridoma subclone supernatant on NCI-H929 cells
Sequence of human GPRC5D protein (human) (Q9NZD1 whole entry): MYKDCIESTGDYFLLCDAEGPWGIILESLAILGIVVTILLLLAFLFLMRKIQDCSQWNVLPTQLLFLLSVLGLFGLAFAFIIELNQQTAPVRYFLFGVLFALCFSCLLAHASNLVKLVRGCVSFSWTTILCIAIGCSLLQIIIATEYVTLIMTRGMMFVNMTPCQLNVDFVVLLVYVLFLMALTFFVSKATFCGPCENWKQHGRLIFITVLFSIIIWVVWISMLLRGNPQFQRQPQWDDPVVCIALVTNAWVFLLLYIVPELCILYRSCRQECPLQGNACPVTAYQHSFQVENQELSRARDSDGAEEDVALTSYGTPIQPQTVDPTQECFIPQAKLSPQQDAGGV

B1: mu-128 (antibody, V domains shown)
VH: DVQLVESGGGLVQPGGSRKVSCAASGFTFSSFGMHWVRQAPEKGLEWVAYISRGSSTIYYADTVKGRFTISRDNPKNTLFLQMTSLRSEDTAMYYCARSGYGSSSYYFDYWGQGTTLTVSS
VL: ENVLTQSPAIMSASPREKVTMTCRASSSIRSSYLHWYQQKSGASPKLWIYSTSNLASGVPARFSGSGSGTSYSLTISSVEAEDAATYYCQQFSGYPLTFGGGTKLEIK
fold difference in absorbance as compared to the control cell CHO-K1 [1]: > 2 fold | MFI [2]: 15700 MFI

B2: mu-89 (antibody, V domains shown)
VH: EVQLVESGGDLVKPGGSLKLSCAASGFTFSSYGMSWVRQTPDKRLEWVATISSGGSYTYYPDSVKGRFTFSRDNAKNTLYLQMSSLKSEDTAMYYCVRQALRYHMDSWGQGTSVTVSS
VL: DIVMTQSQKFMSTSVGDRVSVTCKASQNVGTNVAWYQQKPGQSPKALIYSASYRYSGVPDRFTGSGSGTDFTLTISNVQSEDLADFFCQQYYSYPWTFGGGTKLEIK
fold difference in absorbance as compared to the control cell CHO-K1 [1]: > 2 fold | MFI [2]: 11900 MFI

B3: mu-105 (antibody, V domains shown)
VH: EVQLQQSGPELVKPGASVKMSCKASGYTFTDYYMNWVKQSHGKSLEWIGYIYPNNGGTGYNQRFKGKATLTADKSSSTAYMELRSLTSEDSAVYYCARWGGTRLGYYAMDYWGQGTSVTVSS
VL: B2 VL with A34V, A46L, S50W, Y53T, Y55H, S56T, F86Y, Y92S, S93R, W96Y
fold difference in absorbance as compared to the control cell CHO-K1 [1]: > 2 fold | MFI [2]: 13200 MFI

Now from value to binder:

fold difference in absorbance as compared to the control cell CHO-K1 [1]: > 2 fold | MFI [2]: 12800 MFI
B4: mu-131 (antibody, V domains shown)
VH: EVQLQQSGPELVKPGASVKMSCKASGYTFTNYVMHWVKQKPGQGLEWIGYFNPYNDGTNYNEKFKGKATLTSDKSSNTAYMELSSLTSEDSAVYYCARGGVRRYFDVWGAGTTVTVSS
VL: DIQMTQSPSSLSASLGERVSLTCRASQDIGSNLNWLQLGPDGTIKRLIYATFSLDSGVPKRFSGSRSGSDYSLTISSLESEDFVDYYCQQYANFPPTFGGGTKLEIK

fold difference in absorbance as compared to the control cell CHO-K1 [1]: > 2 fold | MFI [2]: 59300 MFI
B5: mu-169 (antibody, V domains shown)
VH: EVKLVESGGGLVKPGASLKLSCAASGFTFSNYGMSWVRQTSDKRLEWVASISSGGGRIYYPDNVKGRFTISRENAKNTLYLQMSSLKSEDTALYYCTRHAMDNWGQGTSVIVSS
VL: QIVLTQSPAIMSASPGEKVTMTCSASSSVSNMYWYQQKSGTSPKRWIYDTSKLASGVPARFSGSGSGTSYSLTISSMEAEDASTYYCQQWSSNPLTFGAGTTLELK
